We go through 6 substances from patent publication US20120316071A1.

Test [1] has as its target rHuman P-Cadherin/Fc Chimera, CF (R&D Systems Cat#861-PC) (human) (UniProt P22223). Kind of test: ECL multispot (MSD) binding assay, antigen spotted on plate, Fab in solution; blank spot 306.
In test [2] the target is rHuman HGF R/c-MET/Fc Chimera, CF (R&D Systems Cat#358-MT/CF) (human) (UniProt P08581). The description is as above.
The target in test [3] is rHuman EGF R/Fc Chimera, CF (R&D Systems Cat#344-ER) (human) (UniProt P00533). The description is as above.
For test [4], the target named is rHuman IGF-1 sR, CF (R&D Systems Cat#391-GR) (human) (UniProt P08069). The description is as above.
In test [5] the target is rHuman Notch-1/Fc Chimera, CF (R&D Systems Cat#3647-TK) (human) (UniProt P46531). The description is as above.
Test [6] has as its target rHuman CD44/Fc Chimera, CF (R&D Systems Cat#3660-CD) (human) (UniProt P16070). The test is described as above.
The target in test [7] is rHuman ErbB2/Fc Chimera, CF (R&D Systems Cat#1129-ER) (human) (UniProt P04626). The test is described as above.
The target in test [8] is rHuman Erythropoietin R/Fc Chimera (human) (UniProt P19235). Kind of test: ECL (MSD) multispot assay, antigen spotted; blank spot of this row 284.
The target in test [9] is rHuman IGF-1 sR (insulin-like growth factor-1 soluble receptor) (human) (UniProt P08069). Described as above.
Test [10] deals with rHuman HGF R/c-MET/Fc Chimera (human) (UniProt P08581). Described as above.
Test [11] deals with rHuman P-Cadherin/Fc Chimera, CF (R&D Systems Cat#861-PC) (human) (UniProt P22223). The test can be described thus: ECL multispot (MSD) binding assay, antigen spotted on plate, Fab in solution; blank spot 349.
The target of test [12] is rHuman HGF R/c-MET/Fc Chimera, CF (R&D Systems Cat#358-MT/CF) (human) (UniProt P08581). Described as above.
The target of test [13] is rHuman EGF R/Fc Chimera, CF (R&D Systems Cat#344-ER) (human) (UniProt P00533). The test is described as above.
In test [14] the target is rHuman IGF-1 sR, CF (R&D Systems Cat#391-GR) (human) (UniProt P08069). Described as above.
The target in test [15] is rHuman Notch-1/Fc Chimera, CF (R&D Systems Cat#3647-TK) (human) (UniProt P46531). The test is described as above.
Test [16] addresses rHuman CD44/Fc Chimera, CF (R&D Systems Cat#3660-CD) (human) (UniProt P16070). Described as above.
Test [17] deals with rHuman ErbB2/Fc Chimera, CF (R&D Systems Cat#1129-ER) (human) (UniProt P04626). The description is as above.
The target in test [18] is rHuman Erythropoietin R/Fc Chimera (human) (UniProt P19235). Kind of test: ECL (MSD) multispot assay, antigen spotted; blank spot of this row 223.
Test [19] concerns the target rHuman IGF-1 sR (insulin-like growth factor-1 soluble receptor) (human) (UniProt P08069). Described as above.
The target of test [20] is rHuman HGF R/c-MET/Fc Chimera (human) (UniProt P08581). The test is described as above.
In test [21] the target is rHuman CD44/Fc Chimera (human) (UniProt P16070). Described as above.
For test [22], the target named is rHuman Erythropoietin R/Fc Chimera (human) (UniProt P19235). The test can be described thus: ECL (MSD) multispot assay, antigen spotted; blank spot of this row 236.
Test [23] concerns the target rHuman IGF-1 sR (insulin-like growth factor-1 soluble receptor) (human) (UniProt P08069). The test is described as above.
Test [24] has as its target rHuman HGF R/c-MET/Fc Chimera (human) (UniProt P08581). The description is as above.
The target of test [25] is rHuman CD44/Fc Chimera (human) (UniProt P16070). Described as above.
Test [26] concerns the target rHuman Notch-1/Fc Chimera (human) (UniProt P46531). The test is described as above.
Test [27] has as its target Recombinant Human DLL4 (delta-like protein 4) (human) (UniProt Q9NR61). Kind of test: ECL (MSD electrochemiluminescence) binding assay, Fab on immobilised recombinant human DLL4.
The target is the same in test [28]. The test can be described thus: ELISA, Fab on coated recombinant human DLL4, signal minus noise. (In an ELISA, binding on a coated surface is turned into a signal by an enzyme label.)

For the substance “Fab VH5-51_IGHD5-18*01>3_IGHJ4*01 G100K/G104T D55A & V3-4_IGLJ1*01”, the ECL signal came to 310 in test [1]; 856 in test [2]; 729 in [3]; 898 in test [4]; 683 in test [5]; 606 in test [6]. In test [7], this substance yielded an ECL signal of 1030.

On to “Fab VH5-51_IGHD5-18*01>3_IGHJ4*01 G100K/G104T D109A & V3-4_IGLJ1*01”, for which the ECL signal was 612 in [8], 967 in test [9] and 846 in test [10].

On to “Fab VH5-51_IGHD5-18*01>3_IGHJ4*01 G100K/G104T P53A & V3-4_IGLJ1*01”, for which the ECL signal in test [11] stood at 424; in test [12], 1000; in [13], 976; in test [14], 943; in [15] it was 536; in test [16] it was 556. The same substance came in with an ECL signal in [17] of 1140.

For the substance “Fab VH5-51_IGHD5-18*01>3_IGHJ4*01 G100K/G104T S84L & V3-4_IGLJ1*01”, the ECL signal in test [18] turned out to be 458; in test [19], 908; in test [20], 933; in test [21], 545.

In the case of “Fab VH5-51_IGHD5-18*01>3_IGHJ4*01 G100K/G104T S84V & V3-4_IGLJ1*01”, the ECL signal amounted to 484 in [22]; 914 in test [23]; 811 in test [24]; 577 in test [25]; 505 in test [26].

Regarding “Fab VH5-51_IGHD5-18*01>3_IGHJ4*01 G100K/G104T T58D/K & V3-4_IGLJ1*01”, the ECL signal in [27] is 823. Further, in test [28], the ELISA (Signal-Noise) is 0.03.
